Reference: patent US20090110680A1, “Combination of an anti ED-B fibronectin domain antibody and gemcitabine” (priority 2006, published 2009)

How the values were obtained:
[1] = system: Capan-1, human pancreas adenocarcinoma xenografts; assay: Radiotherapy / combination therapy study in mice bearing human pancreatic tumour xenografts; type: in vivo; conditions: for survival versus untreated control animals: control (36 days)
Procedure: ED-B-fibronectin domain expression in mouse pancreatic tumour models as well in human pancreatic cancer tissue, pancreatitis and normal pancreas was investigated by immunohistochemical analysis. SPECT (=single photon emission computed tomography) imaging was performed in an orthotopic pancreas cancer mouse model (DAN-G human pancreas carcinoma, DMSZ No. ACC249) with the ^99mTc labelled ED-B-fibronectin domain targeting scFv antibody fragment AP39, described in WO 03/055917. In addition MRI imaging was performed. In radiotherapy studies, mice bearing human pancreatic tumour xenografts (Capan-1, human pancreas adenocarcinoma, ATTC-No. HTB-79) were treated with a single dose of either 37 MBq or 74 MBq of ^131I-labelled ED-B-fibronectin domain targeting L19-SIP (=fusion protein). For combination therapy Capan-1 tumour bearing mice received two cycles of gemcitabine (1 g/m^2/week for three weeks with a one-week break), followed by a single dose of 37 MBq ^131I-L19-SIP 24 h after the first injection of gemcitabine. In a first experiment Capan-1 tumour bearing mice received either a single dose of 37 MBq of ^131I labelled ED-B-fibronectin domain targeting L19-SIP, or two cycles of gemcitabine (1 g/m^2/week for three weeks with a one-week break) as stand alone therapies. For combination therapy mice received two cycles of gemcitabine together with a single dose of 37 MBq ^131I-L19-SIP 24 h after the first injection of gemcitabine. In a second experiment Capan-1 tumour bearing mice were treated with a single dose of either 37 MBq or 74 MBq of ^131I labelled ED-B-fibronectin domain targeting L19-SIP (=fusion protein). For combination therapy Capan-1 tumour bearing mice received two cycles of gemcitabine (1 g/m^2/week for three weeks with a one-week break), together with a single dose of 37 MBq 1311-L19-SIP 24 h after the first injection of gemcitabine.

[2] = target: T1, ED-B domain of fibronectin (Homo sapiens, UniProt P02751); conditions: cited from earlier work
T1 construct: The ED-B, a small domain of 91 amino acids
T1 sequence (P02751 1271-1359 limits assumed): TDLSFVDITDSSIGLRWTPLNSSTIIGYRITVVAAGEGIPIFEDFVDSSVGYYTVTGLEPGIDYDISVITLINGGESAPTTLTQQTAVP

Nc1ccn([C@@H]2O[C@H](CO)[C@@H](O)C2(F)F)c(=O)n1 [gemcitabine, 2′-deoxy-2′,2′-difluorocytidine]
survival versus untreated control animals ([1]; gemcitabine alone, two cycles (1 g/m^2/week for three weeks, one-week break), Capan-1 tumour bearing mice): did not differ from untreated control animals

scFv(L19): human single chain Fv antibody fragment specific for the ED-B domain of fibronectin
binding affinity for ED-B [2]: picomolar

B1: ^131I-L19-SIP (conjugate, chains of the INN, looked up)
VH: EVQLLESGGGLVQPGGSLRLSCAASGFTFSSFSMSWVRQAPGKGLEWVSSISGSSGTTYYADSVKGRFTISRDNSKNTLYLQMNSLRAEDTAVYYCAKPFPYFDYWGQGTLVTVSS
VL: EIVLTQSPGTLSLSPGERATLSCRASQSVSSSFLAWYQQKPGQAPRLLIYYASSRATGIPDRFSGSGSGTDFTLTISRLEPEDFAVYYCQQTGRIPPTFGQGTKVEIK
modifications: small immunoprotein iodine-131 label
survival versus untreated control animals ([1]; 37 MBq ^131I-L19-SIP alone, Capan-1 tumour bearing mice): did not differ from untreated control animals | tumour growth inhibition compared to untreated control tumours ([1]; 37 MBq ^131I-L19-SIP, single dose): did not result in tumour growth inhibition | median survival ([1]; single dose of 74 MBq ^131I-L19-SIP alone, Capan-1 tumour bearing mice, untreated control 32 days): 44 days
